Measurements as given in patent US20140105905A1 (Amgen, published 2014).

Legend:
[1] = target: T1, recombinant human Interleukin-8 (human, UniProt P10145 28-99); assay: KinExA equilibrium in solution, 36 h, mAb 20 pM
T1 construct: also called rhIL-8; IL-8
T1 sequence (looked up): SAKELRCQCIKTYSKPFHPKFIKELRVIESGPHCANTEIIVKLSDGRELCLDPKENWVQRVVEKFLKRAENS
Procedure: The experiments with KinExA were performed using an automated flow immunoassay system, KinExA 3000 [Ohmura et al., Anal. Chem. 73:3392, 2001] in which rhIL-8-coupled beads served as the solid phase. […] Antigen/antibody complexes were incubated at RT for 36 h to 144 h to allow equilibrium to be reached. The mixture was drawn through the rhIL-8-coupled beads to accumulate unbound antibody. The captured anti-hIL-8 mAb is directly proportional to the remaining free binding sites and was detected using solutions containing Cy5-conjugated anti-human secondary antibody in sample buffer. The concentrations, volumes, and flow rates of the secondary antibody solutions were varied to optimize the signal to noise ratio in each experiment. The bound signals were converted into relative values as a proportion of control in the absence of rhIL-8. The equilibrium dissociation constant (Kd) was obtained from nonlinear regression analysis of the data using a one-site homogeneous binding model contained within the software [Blake et Al., Anal. Biochem. 272:123, 1999; Jones et al., Bioconjug Chem 13:408, 2002]. […]
A proportionate amount of free mAb present in the equilibrium mixture was measured by flowing 0.25 ml to 3 ml of the sample on rhIL-8 coupled to CNBr-activated Sepharose beads and detected using 1.0 ml of 1.7 μg/ml of Cy5-labeled goat anti-human IgG Fcγ fragment-specific secondary antibody. […]

[2] = target: T1, recombinant human Interleukin-8; assay: KinExA equilibrium, low mAb concentration experiments analyzed in single curves
Procedure: Antigen/antibody complexes were incubated at RT for 36 h to 144 h to allow equilibrium to be reached. The mixture was drawn through the rhIL-8-coupled beads to accumulate unbound antibody. The captured anti-hIL-8 mAb is directly proportional to the remaining free binding sites and was detected using solutions containing Cy5-conjugated anti-human secondary antibody in sample buffer. The concentrations, volumes, and flow rates of the secondary antibody solutions were varied to optimize the signal to noise ratio in each experiment. The bound signals were converted into relative values as a proportion of control in the absence of rhIL-8. The equilibrium dissociation constant (Kd) was obtained from nonlinear regression analysis of the data using a one-site homogeneous binding model contained within the software [Blake et Al., Anal. Biochem. 272:123, 1999; Jones et al., Bioconjug Chem 13:408, 2002]. […]
A proportionate amount of free mAb present in the equilibrium mixture was measured in KinExA under optimized conditions. For example, for the mixtures containing the low concentration of mAb, 18-36 ml of the sample was flown through rhIL-8 coupled to NHS-activated Sepharose beads and detected using 1-2 ml of 2.0 μg/ml of Cy5-labeled goat anti-human IgG Fcγ fragment-specific secondary antibody. […]

[3] = target: T1, recombinant human Interleukin-8; assay: KinExA "Kinetics, Direct" method
Text: (§1) For measuring the association rate constant using KinExA, the same rhIL-8-coupled beads were used as the probe and the “Kinetics, Direct” method was used. The “Kinetics, Direct” experiments by KinExA are identical to KinExA equilibrium assays with respect to bead column height, antibody capture, antibody concentration and antibody detection. Briefly, the mAb was mixed with an amount of antigen that bound approximately 80% of the mAb in the equilibrium experiments and the free antibody present in the sample was probed repeatedly, pre-equilibrium. […] The volumes and flow rates of the antigen-mAb mixtures and the Cy5-labeled secondary antibody were varied depending upon the mAb tested. Data was analyzed utilizing the KinExA analysis software that comes with the KinExA 3000 instrument. This software graphically represents the decrease in binding signals over time, and fits the collected data points to an exact solution of the kinetic differential equations for binding. From this curve, an optimal solution for the kₒₙ is determined. The koff is indirectly calculated from solutions for the kₒₙ and Kd.
(§2) The on-rate measurement by KinExA is not limited by the mAb concentration used in the experiment. […] The concentration of mAb used for on-rate experiments was the same as those used in equilibrium binding experiments. An amount of IL-8 that bound 80% of the mAb in equilibrium binding experiments was mixed with the mAb. The amount of free mAb left in the mixture was measured in KinExA by flowing 1 ml of the mixture repeatedly through rhIL-8 coupled to NHS-activated Sepharose beads and detected using 1 ml of 2.0 μg/ml of Cy5-labeled goat anti-human IgG Fcγ fragment-specific secondary antibody. The kₒₙ was measured using the KinExA software by the “Kinetic, Direct” method and the 95% confidence intervals are given as kₒₙ range. The koff for the mAb was calculated from the measured kₒₙ and Kd of the respective mAb.

[4] = target: T1, recombinant human Interleukin-8; assay: calculated from KinExA kon and Kd
Text: as §1, §2

[5] = target: T1, recombinant human Interleukin-8; assay: KinExA equilibrium, optimized, n-curve analysis, mAb 0.68, 2.0 and 13.7 pM
Text: The equilibrium dissociation constant (Kd) was obtained from nonlinear regression analysis of the data using a one-site homogeneous binding model contained within the software [Blake et Al., Anal. Biochem. 272:123, 1999; Jones et al., Bioconjug Chem 13:408, 2002]. The software calculates the Kd and determines the 95% confidence interval by fitting the data points to a theoretical Kd curve. The 95% confidence interval is given as Kd low and Kd high.
A proportionate amount of free mAb present in the equilibrium mixture was measured in KinExA under optimized conditions. For example, for the mixtures containing the low concentration of mAb, 18-36 ml of the sample was flown through rhIL-8 coupled to NHS-activated Sepharose beads and detected using 1-2 ml of 2.0 μg/ml of Cy5-labeled goat anti-human IgG Fcγ fragment-specific secondary antibody. The Kd was calculated using KinExA software by using the “n-curve analysis” selection.

[6] = target: T1, recombinant human Interleukin-8; assay: not named in this sentence (summary of the filing's own affinity results)
[7] = target: T2, IL-8 peptide ELRCQCIKTYSK (human); assay: overlapping IL-8 peptides on a membrane; column "Recognized epitope"
T2 peptide: ELRCQCIKTYSK
Procedure: Briefly, overlapping IL-8 peptides, which were each two amino acids c-terminal to the previous peptide (as shown in FIG. 8) were prepared and attached to a membrane. Antibodies were then added and allowed to bind to the peptides.

B1: anti-hIL-8 mAb 928 (antibody, human IgG2, V domains shown)
VH: QVQLVESGGGVVQPGRSLRLSCAASGFTFSSYGMLWVRQAPGKGLEWVADISYDGSNKYYADSVKGRFTISRDNSKNTLYLQMNSLRAEDTAVFYCARDRIAVADYWGQGTLVTVSS
VL: EIVLTQSPGTLSLSPGERATLSCRASQSVSSSFLAWYQQKPGQAPRLLIYGASSRATGIPDRFSGSGSGTDFILTISRLEPEDFAVYYCQQYDSSFTFGPGTKVDIK
Kd [1]: 0.057 pM | Kd [2]: 0.59 pM | kon [3]: 6e+06 M⁻¹ s⁻¹ | koff [4]: 3.7e-06 s⁻¹ | Kd [5]: 0.613 pM | Kd [6]: ~0.06 pM | binding result [7]: binds
